# What was measured:
# Assay in all cases: holdup assay
# Parameters in all cases: key: below the threshold = too weak to quantify, mostly under pKd 3.1 to 4
# [1] = biological target: T1, ARHGAP21, Q5T5U3
# T1 sequence (Q5T5U3 45-169, limits assumed, looked up): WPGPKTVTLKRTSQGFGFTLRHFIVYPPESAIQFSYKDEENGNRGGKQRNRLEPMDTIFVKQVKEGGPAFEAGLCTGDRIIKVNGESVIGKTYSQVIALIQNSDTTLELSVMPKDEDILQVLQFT
# [2] = biological target: T2, ARHGEF11, O15085
# T2 sequence (O15085 42-136, limits assumed, looked up): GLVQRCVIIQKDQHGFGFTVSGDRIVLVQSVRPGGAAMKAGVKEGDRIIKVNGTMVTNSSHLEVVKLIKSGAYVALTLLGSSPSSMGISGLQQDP
# [3] = biological target: T3, DLG3_2, Q92796
# T3 sequence (Q92796 221-321, limits assumed, looked up): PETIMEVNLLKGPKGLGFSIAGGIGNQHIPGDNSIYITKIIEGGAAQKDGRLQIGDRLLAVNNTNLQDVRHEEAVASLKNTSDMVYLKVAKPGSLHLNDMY
# [4] = biological target: DLG5_1, Q8TDM6
# [5] = biological target: GORASP1, Q9BQQ3
# [6] = biological target: GRIP2_5, Q9C0E4
# [7] = biological target: IL16_1, Q14005
# [8] = biological target: IL16_4, Q14005
# [9] = biological target: Inadl_2, Q8NI35
# [10] = biological target: Inadl_8, Q8NI35
# [11] = biological target: LDB3, O75112
# [12] = biological target: T4, LNX2_2, Q8N448
# T4 sequence (Q8N448 334-432, limits assumed, looked up): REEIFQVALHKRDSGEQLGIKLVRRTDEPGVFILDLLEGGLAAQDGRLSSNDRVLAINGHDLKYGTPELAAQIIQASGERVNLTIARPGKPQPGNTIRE
# [13] = biological target: MAST1, Q9Y2H9
# [14] = biological target: MAST2, Q6P0Q8
# [15] = biological target: T5, MPP6, Q9NZW5
# T5 sequence (Q9NZW5 125-219, limits assumed, looked up): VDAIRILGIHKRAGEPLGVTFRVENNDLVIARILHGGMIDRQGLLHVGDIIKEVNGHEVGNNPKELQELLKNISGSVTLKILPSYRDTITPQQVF
# [16] = biological target: NHERF2_2, Q15599
# [17] = biological target: T6, NHERF3_3, Q5T2W1
# T6 sequence (Q5T2W1 238-333, limits assumed, looked up): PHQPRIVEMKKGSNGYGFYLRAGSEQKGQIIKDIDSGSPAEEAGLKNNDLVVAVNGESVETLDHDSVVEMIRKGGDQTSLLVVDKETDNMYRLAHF
# [18] = biological target: NHERF4_4, Q86UT5
# [19] = biological target: T7, PCLO, Q9Y6V0
# T7 sequence (Q9Y6V0 4491-4600, limits assumed, looked up): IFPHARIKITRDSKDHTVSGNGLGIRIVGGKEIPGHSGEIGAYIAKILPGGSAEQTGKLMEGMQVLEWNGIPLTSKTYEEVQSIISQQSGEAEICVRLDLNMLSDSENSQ
# [20] = biological target: T8, PDZRN3_1, Q9UPQ7
# T8 sequence (Q9UPQ7 244-349, limits assumed, looked up): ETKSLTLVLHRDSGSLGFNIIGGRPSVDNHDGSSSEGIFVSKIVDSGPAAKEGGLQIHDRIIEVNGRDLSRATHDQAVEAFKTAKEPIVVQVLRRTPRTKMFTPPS
# [21] = biological target: PICK1, Q9NRD5
# [22] = biological target: PTPN3, P26045
# [23] = biological target: T9, RHPN1, Q8TCX5
# T9 sequence (Q8TCX5 508-602, limits assumed, looked up): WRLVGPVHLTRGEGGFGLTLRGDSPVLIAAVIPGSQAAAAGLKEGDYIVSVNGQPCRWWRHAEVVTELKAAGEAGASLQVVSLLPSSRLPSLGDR
# [24] = biological target: T10, SHANK1, Q9Y566
# T10 sequence (Q9Y566 658-767, limits assumed, looked up): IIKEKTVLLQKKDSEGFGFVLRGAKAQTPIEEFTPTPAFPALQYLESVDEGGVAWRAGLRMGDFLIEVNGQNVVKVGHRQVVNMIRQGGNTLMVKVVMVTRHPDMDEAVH
# [25] = biological target: T11, SIPA1L2, Q9P2F8
# T11 sequence (Q9P2F8 945-1036, limits assumed, looked up): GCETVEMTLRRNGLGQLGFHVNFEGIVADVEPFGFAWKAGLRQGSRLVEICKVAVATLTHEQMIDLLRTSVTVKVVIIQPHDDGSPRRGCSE
# [26] = biological target: SNX27, Q96L92
# [27] = biological target: TJP1_2, Q07157
# [28] = plain residues with an end cap or a label only (N-terminal biotin on a linker: ttds)
# [29] = plain residues with an end cap or a label only (N-terminal biotin on a linker: ado-ado)
# Sequence of IL16_4, Q14005 (Q14005 1229-1329): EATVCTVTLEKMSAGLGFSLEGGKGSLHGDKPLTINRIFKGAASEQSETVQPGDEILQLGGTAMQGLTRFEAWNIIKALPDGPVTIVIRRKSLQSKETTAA
# Sequence of LDB3, O75112 (O75112 1-94): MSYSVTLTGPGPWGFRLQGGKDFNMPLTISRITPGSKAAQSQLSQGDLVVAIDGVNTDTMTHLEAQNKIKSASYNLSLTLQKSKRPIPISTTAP
# Sequence of IL16_1, Q14005 (Q14005 210-306): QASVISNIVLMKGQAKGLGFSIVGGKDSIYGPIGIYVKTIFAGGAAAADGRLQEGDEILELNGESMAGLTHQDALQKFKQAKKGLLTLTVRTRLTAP
# Sequence of NHERF2_2, Q15599 (Q15599 142-238): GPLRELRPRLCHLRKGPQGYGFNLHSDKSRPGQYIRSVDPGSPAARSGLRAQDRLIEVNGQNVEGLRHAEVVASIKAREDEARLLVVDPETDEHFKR
# Sequence of GRIP2_5, Q9C0E4 (Q9C0E4 544-642): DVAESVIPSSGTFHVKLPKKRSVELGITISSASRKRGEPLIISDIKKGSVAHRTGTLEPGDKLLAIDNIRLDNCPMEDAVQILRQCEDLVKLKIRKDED
# Sequence of NHERF4_4, Q86UT5 (Q86UT5 464-550): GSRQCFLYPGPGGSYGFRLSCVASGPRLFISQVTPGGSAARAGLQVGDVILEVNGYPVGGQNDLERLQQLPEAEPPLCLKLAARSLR
# Sequence of MAST1, Q9Y2H9 (Q9Y2H9 962-1065): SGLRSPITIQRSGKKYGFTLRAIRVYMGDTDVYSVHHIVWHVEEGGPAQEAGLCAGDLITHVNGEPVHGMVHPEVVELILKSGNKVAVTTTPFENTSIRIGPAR
# Sequence of DLG5_1, Q8TDM6 (Q8TDM6 617-713): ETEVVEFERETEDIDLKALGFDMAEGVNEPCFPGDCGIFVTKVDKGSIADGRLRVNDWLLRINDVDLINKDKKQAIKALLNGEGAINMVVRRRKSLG
# Sequence of GORASP1, Q9BQQ3 (Q9BQQ3 1-208): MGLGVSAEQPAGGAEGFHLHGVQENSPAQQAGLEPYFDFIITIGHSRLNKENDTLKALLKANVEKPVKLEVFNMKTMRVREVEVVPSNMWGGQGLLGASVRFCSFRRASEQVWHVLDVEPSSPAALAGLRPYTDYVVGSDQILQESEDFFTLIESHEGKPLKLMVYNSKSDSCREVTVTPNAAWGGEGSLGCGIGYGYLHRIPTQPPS
# Sequence of TJP1_2, Q07157 (Q07157 181-274): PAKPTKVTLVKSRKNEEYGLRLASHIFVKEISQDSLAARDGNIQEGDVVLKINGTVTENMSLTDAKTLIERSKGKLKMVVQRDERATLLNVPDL
# Sequence of PICK1, Q9NRD5 (Q9NRD5 17-115): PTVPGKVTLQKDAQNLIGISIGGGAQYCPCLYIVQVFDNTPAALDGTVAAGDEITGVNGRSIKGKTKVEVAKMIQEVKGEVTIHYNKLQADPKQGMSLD
# Sequence of MAST2, Q6P0Q8 (Q6P0Q8 1099-1202): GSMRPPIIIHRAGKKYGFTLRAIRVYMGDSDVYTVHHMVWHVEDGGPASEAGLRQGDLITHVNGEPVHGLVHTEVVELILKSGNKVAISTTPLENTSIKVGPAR
# Sequence of PTPN3, P26045 (P26045 505-587): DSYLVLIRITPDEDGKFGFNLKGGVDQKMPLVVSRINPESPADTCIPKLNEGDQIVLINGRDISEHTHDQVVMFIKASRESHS
# Sequence of Inadl_8, Q8NI35 (Q8NI35 1425-1530): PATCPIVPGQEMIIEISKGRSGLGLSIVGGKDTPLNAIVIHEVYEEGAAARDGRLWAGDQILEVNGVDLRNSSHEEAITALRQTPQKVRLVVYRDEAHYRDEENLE
# Sequence of Inadl_2, Q8NI35 (Q8NI35 238-335): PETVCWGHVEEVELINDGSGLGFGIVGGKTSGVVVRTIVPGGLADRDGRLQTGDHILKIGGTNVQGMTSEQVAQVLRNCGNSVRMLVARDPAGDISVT
binder,measurement,setting,value
"RRVRKLPSTTL [RPS6KA1, Q15418]",pKd,[1]; [28],below the threshold
same,pKd,[2]; [28],4.44
same,pKd,[3]; [28],below the threshold
same,pKd,[4]; [28],below the threshold
same,pKd,[5]; [28],below the threshold
same,pKd,[6]; [28],below the threshold
same,pKd,[7]; [28],below the threshold
same,pKd,[8]; [28],below the threshold
same,pKd,[9]; [28],below the threshold
same,pKd,[10]; [28],below the threshold
same,pKd,[11]; [28],below the threshold
same,pKd,[12]; [28],3.6
same,pKd,[13]; [28],4.68
same,pKd,[14]; [28],5.37
same,pKd,[15]; [28],3.73
same,pKd,[16]; [28],3.97
same,pKd,[17]; [28],3.61
same,pKd,[18]; [28],3.49
same,pKd,[19]; [28],below the threshold
same,pKd,[20]; [28],3.75
same,pKd,[21]; [28],below the threshold
same,pKd,[22]; [28],3.93
same,pKd,[23]; [28],4.26
same,pKd,[24]; [28],4.17
same,pKd,[25]; [28],below the threshold
same,pKd,[26]; [28],3.5
same,pKd,[27]; [28],3.51
"NYWPGKETQL [SLCO1C1, Q9NYB5]",pKd,[1]; [28],3.94
same,pKd,[2]; [28],4.53
same,pKd,[3]; [28],4.88
same,pKd,[4]; [28],below the threshold
same,pKd,[5]; [28],below the threshold
same,pKd,[6]; [28],below the threshold
same,pKd,[7]; [28],below the threshold
same,pKd,[8]; [28],below the threshold
same,pKd,[9]; [28],below the threshold
same,pKd,[10]; [28],below the threshold
same,pKd,[11]; [28],below the threshold
same,pKd,[12]; [28],below the threshold
same,pKd,[13]; [28],5.26
same,pKd,[14]; [28],6.05
same,pKd,[15]; [28],3.74
same,pKd,[16]; [28],4.69
same,pKd,[17]; [28],below the threshold
same,pKd,[18]; [28],below the threshold
same,pKd,[19]; [28],below the threshold
same,pKd,[20]; [28],5.71
same,pKd,[21]; [28],below the threshold
same,pKd,[22]; [28],5.42
same,pKd,[23]; [28],5.14
same,pKd,[24]; [28],3.81
same,pKd,[25]; [28],below the threshold
same,pKd,[26]; [28],5.24
same,pKd,[27]; [28],below the threshold
"CNTVTVETVV [MAS1, P04201]",pKd,[1]; [28],below the threshold
same,pKd,[2]; [28],below the threshold
same,pKd,[3]; [28],4.53
same,pKd,[4]; [28],below the threshold
same,pKd,[5]; [28],below the threshold
same,pKd,[6]; [28],below the threshold
same,pKd,[7]; [28],below the threshold
same,pKd,[8]; [28],3.6
same,pKd,[9]; [28],below the threshold
same,pKd,[10]; [28],below the threshold
same,pKd,[11]; [28],below the threshold
same,pKd,[12]; [28],4.13
same,pKd,[13]; [28],3.58
same,pKd,[14]; [28],3.92
same,pKd,[15]; [28],3.54
same,pKd,[16]; [28],below the threshold
same,pKd,[17]; [28],3.54
same,pKd,[18]; [28],below the threshold
same,pKd,[19]; [28],below the threshold
same,pKd,[20]; [28],below the threshold
same,pKd,[21]; [28],below the threshold
same,pKd,[22]; [28],3.8
same,pKd,[23]; [28],4.09
same,pKd,[24]; [28],below the threshold
same,pKd,[25]; [28],below the threshold
same,pKd,[26]; [28],4.57
same,pKd,[27]; [28],below the threshold
"EDLTKNHDEL [RCN1, Q15293]",pKd,[1]; [29],4.17
same,pKd,[2]; [29],3.79
same,pKd,[3]; [29],below the threshold
same,pKd,[4]; [29],3.49
same,pKd,[5]; [29],below the threshold
same,pKd,[6]; [29],below the threshold
same,pKd,[7]; [29],below the threshold
same,pKd,[8]; [29],below the threshold
same,pKd,[9]; [29],below the threshold
same,pKd,[10]; [29],below the threshold
same,pKd,[11]; [29],3.54
same,pKd,[12]; [29],below the threshold
same,pKd,[13]; [29],3.91
same,pKd,[14]; [29],below the threshold
same,pKd,[15]; [29],below the threshold
same,pKd,[16]; [29],3.74
same,pKd,[17]; [29],below the threshold
same,pKd,[18]; [29],4.01
same,pKd,[19]; [29],below the threshold
same,pKd,[20]; [29],3.65
same,pKd,[21]; [29],below the threshold
same,pKd,[22]; [29],below the threshold
same,pKd,[23]; [29],3.79
same,pKd,[24]; [29],below the threshold
same,pKd,[25]; [29],below the threshold
same,pKd,[26]; [29],4
same,pKd,[27]; [29],below the threshold

# — PMC9482650, “Quantitative fragmentomics allow affinity mapping of interactomes” (Nature Communications, 2022)
